# Test results reported in US20250207140 (published 2025).
# B1: SEQ ID NO: 14 aptamer (72 nt truncation of SEQ ID NO: 1) (ssRNA)
# RNA: GGGAGAGCGGAAGCGUGCUGGGCCCCUUUGACCAUAGGAGGCAAGUCUUAUGUUCAAACUGGUCCAUAACCC
# modifications: 2'-F pyrimidines
# Molecular target: SARS-CoV-2 spike protein (original strain) (SARS-CoV-2, UniProt P0DTC2 P0DTC2:14-1273)
# Assay: flow
binder,measurement,value
B1,Kd,20.7 nM
